Consider 1 molecule from patent EP4653467A1 (Wuhan Zhaozhi Biotechnology Co., Ltd., dated 2025).

The target of this experiment is T1, CD22 on RAJI cells (UniProt P20273 20-847, limits assumed).
T1 sequence (looked up): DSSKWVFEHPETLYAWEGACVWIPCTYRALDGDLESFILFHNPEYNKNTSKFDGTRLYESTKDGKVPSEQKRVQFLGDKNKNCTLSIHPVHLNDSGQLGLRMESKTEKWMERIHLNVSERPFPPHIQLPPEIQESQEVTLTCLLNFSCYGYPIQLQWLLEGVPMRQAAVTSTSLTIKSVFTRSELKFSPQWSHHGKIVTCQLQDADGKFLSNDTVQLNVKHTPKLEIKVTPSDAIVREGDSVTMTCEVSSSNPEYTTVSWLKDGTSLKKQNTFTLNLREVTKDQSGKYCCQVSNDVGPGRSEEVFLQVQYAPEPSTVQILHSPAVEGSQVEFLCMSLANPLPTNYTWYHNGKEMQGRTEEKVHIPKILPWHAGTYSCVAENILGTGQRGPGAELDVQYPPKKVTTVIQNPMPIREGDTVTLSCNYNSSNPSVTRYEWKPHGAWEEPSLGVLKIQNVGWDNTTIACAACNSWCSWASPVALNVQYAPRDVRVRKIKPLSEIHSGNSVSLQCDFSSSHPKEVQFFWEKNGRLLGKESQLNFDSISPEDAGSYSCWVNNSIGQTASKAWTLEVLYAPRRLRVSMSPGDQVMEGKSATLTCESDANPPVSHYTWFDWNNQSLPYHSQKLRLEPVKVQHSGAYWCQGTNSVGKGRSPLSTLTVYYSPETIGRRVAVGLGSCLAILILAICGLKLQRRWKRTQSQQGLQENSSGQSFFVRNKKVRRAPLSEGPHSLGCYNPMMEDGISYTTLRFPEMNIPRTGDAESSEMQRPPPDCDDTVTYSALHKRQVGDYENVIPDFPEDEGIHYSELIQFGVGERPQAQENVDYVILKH
In words: cell-based or functional assay.

B1: CAR22 (CAR molecule targeting CD22) (other)
chain: MALPVTALLLPLALLLHAAIPDTEVQLVESGGGLVKPGGSLKLSCAASGFAFSIYDMSWVRQTPEKRLEWVAYISSGGGTYYPDTVKGRFTISRDNAKNTLYLQMSSLKSEDTAMYYCARHSGYGTHWGVLFAYWGQGTLVTVSAGGGGSGGGGSGGGGSDIQMTQTTSSLSASLGDRVTISCRASQDISNYLNWYQQKPDGTVKLLIYYTSILHSGVPSRFSGSGSGTDYSLTISNLEQEDFATYFCQQGNTLPWTFGGGTKLEIKATTTPAPRPPTPAPTIASQPLSLRPEACRPAAGGAVHTRGLDFACDFWVLVVVGGVLACYSLLVTVAFIIFWVRSKRSRLLHSDYMNMTPRRPGPTRKHYQPYAPPRDFAAYRSKRGRKKLLYIFKQPFMRPVQTTQEEDGCSCRFPEEEEGGCELRVKFSRSADAPAYQQGQNQLYNELNLGRREEYDVLDKRRGRDPEMGGKPRRKNPQEGLYNELQKDKMAEAYSEIGMKGERRRGKGHDGLYQGLSTATKDTYDALHMQALPPR
For B1, the “target cell lysis (calcein release), CAR-T cells on RAJI positive target cells, effector-to-target ratio 2:1” value was 11.5%; the “target cell lysis (calcein release), CAR-T cells on RAJI positive target cells, effector-to-target ratio 10:1” value was 46.9%; the “target cell lysis (calcein release), CAR-T cells on RAJI positive target cells, effector-to-target ratio 50:1” value is 94.4%.
